B1: OR4K15 (parent)
chain: GUUAACGGUCAUAGGCCAUGGAAACUAGGAGCACCAUUUCGCUGCCAGUGAAGAAAUGAACAAAGAAAAUCUGGGCCAGGCAGGCAUCAAAAGAAAUAGUCUUGCGCUCAACCAGAAAGUCUGUAAUCAUUUUAAGGGUA

Variants of: B1
Assay: self-cleavage, relative activity (ratio to wild type); higher = more cleavage; in vitro, sequencing; the parent is a self-cleaving ribozyme

Row | Variant | self-cleavage
1 | A96U U132C | 1.95
2 | U97A U103A | 0.18
3 | U97A U103C | 1.63
4 | A96G U122C | 1.38
5 | A95G A98G | 1.49
6 | A96U U131C | 2.32
7 | A95G A125U | 0.96
8 | A95G U132C | 2.35
9 | A96G A140U | 1.93
10 | A91G U122A | 0.96
11 | A91G U122G | 2.58
12 | G93A A135G | 2.27
13 | A94G U130G | 1.09
14 | A94U U102C | 1.36
15 | A95G G99A | 1.52
16 | U97C A114U | 0.1
17 | A94U A135U | 1.75
18 | A96G U100A | 0.78
19 | A96U A135G | 1.39
20 | A96U A135U | 0.78
21 | A96U A135C | 1.11
22 | A92U A118U | 0.74
23 | A96U U120C | 1.17
24 | A94G A111U | 0.06

Row | Variant | self-cleavage
25 | A94G A110G | 0.13
26 | U97A A116G | 1.19
27 | A92U U132C | 0.8
28 | A96C U122A | 0.42
29 | A94G A114C | 0.05
30 | A94G A114U | 0.04
31 | A96G U131G | 0.85
32 | A92G A116C | 0.09
33 | A92G A116U | 0.2
34 | A92G A116G | 0.44
35 | A96G C101U | 0.4
36 | A96G C113U | 0.06
37 | A95G A116U | 0.45
38 | A95G A116G | 1.88
39 | U97A A126U | 1.01
40 | G93A A95G | 2.26
41 | A95G G136U | 2.65
42 | A92U A96G | 1.85
43 | A95G A114G | 1.17
44 | A95G A114C | 0.06
45 | A96G A110U | 1.53
46 | A96G A110G | 0.12
47 | A94G A140G | 1.53
48 | A92U A117G | 2.08

Row | Variant | self-cleavage
49 | A92G A95G | 1.46
50 | A95G G123A | 1.22
51 | U97A A118G | 1.01
52 | A90U A125G | 0.8
53 | A95U A118U | 0.6
54 | A95U A118G | 1.41
55 | U97A U108C | 0.01
56 | U97A U108A | 0.03
57 | A96C A140U | 1.14
58 | A96G A117G | 2.13
59 | A96G U102G | 1.08
60 | A96G U102C | 2.33
61 | A96G U102A | 1.52
62 | A91C A114G | 0.64
63 | A90U A116U | 0.24
64 | A94G U102C | 1.87
65 | A96G A111C | 0.01
66 | A92G A118U | 0.78
67 | G93U A135G | 1.96
68 | A95C A116G | 0.74
69 | A96U A111G | 0.04
70 | A90G A135G | 0.51
71 | A92U A116G | 0.99
72 | A90G A116U | 0.5

Row | Variant | self-cleavage
73 | A95G U102C | 2.62
74 | A95G U102A | 2.24
75 | A91U G138A | 0.82
76 | A92G U130C | 0.3
77 | A91G A111U | 0.03
78 | A91U A126U | 1.56
79 | A96G U103G | 0.03
80 | A96G U103A | 1.08
81 | A92U A125G | 0.58
82 | G93A U108A | 0.02
83 | A96G A116G | 0.98
84 | A96U U108C | 0
85 | A90G U130C | 0.87
86 | A92G A110C | 0.26
87 | A96G G115A | 0.07
88 | A92C | 1.27
89 | A92G | 1.15
90 | A92U | 1.71
91 | A92G A134G | 0.98
92 | A94G U133C | 2.11
93 | A96C A118U | 0.32
94 | A95G U127C | 1.56
95 | A95G G137A | 0.66
96 | A95G G137U | 2.07

Row | Variant | self-cleavage
97 | A89U U108C | 0.02
98 | A89U U108G | 0
99 | A94G A117U | 0.67
100 | A92U U120C | 1
101 | A91G A116G | 0.55
102 | A91G A116C | 0.04
103 | A90U A117G | 1.99
104 | A96G A134G | 1.81
105 | A90G A94U | 1.93
106 | A90G A94G | 1.64
107 | A95G C107U | 0.01
108 | A95G C107A | 0.02
109 | A91C U132C | 2.49
110 | A94G U122C | 1.21
111 | A95G C105A | 0.09
112 | A90U | 1.96
113 | A90G | 0.95
114 | A90C | 1.55
115 | A91G A114U | 0.03
116 | A91G A114G | 0.25
117 | A91U A92G | 1.04
118 | A94G A95G | 1.9
119 | A90U A94G | 1.48
120 | A92G U133C | 1.59

Row | Variant | self-cleavage
121 | A91U U124A | 0.84
122 | A94G A98U | 2.36
123 | A92G U108G | 0.02
124 | A94G C113U | 0.03
125 | A91G U120A | 1.33
126 | A91G U120C | 0.53
127 | A91G A129G | 0.58
128 | A91G G119U | 0.81
129 | U97A U132A | 2.62
130 | U97A U132C | 0.95
131 | A92G U132C | 1.35
132 | A90G G138U | 1.3
133 | A96U U139C | 1.15
134 | A91U A118U | 1.23
135 | A95C U124C | 0.32
136 | A90U A111U | 0.11
137 | A96G | 1.37
138 | A96U | 1.88
139 | A96C | 0.82
140 | A92G C113U | 0.14
141 | A92G U131A | 1.33
142 | A91U U132A | 1.98
143 | A96U A98G | 1.31
144 | A90G U131C | 0.31

Row | Variant | self-cleavage
145 | A95U G104A | 0.05
146 | A95G U131C | 1.46
147 | A90G U102C | 1.97
148 | A90G U102A | 0.09
149 | A91G G104A | 0.02
150 | A92U A126G | 1.18
151 | A91U A117U | 1.15
152 | A90U A126U | 0.98
153 | A94C A116C | 0.25
154 | G93A U102A | 2.2
155 | A90G U100C | 2.32
156 | A90G U100A | 0.31
157 | A95U A117U | 0.55
158 | A92G A94U | 2.13
159 | A96G U133C | 1.82
160 | A92U A94G | 1.76
161 | A92C A114G | 0.98
162 | A91G A96G | 1.3
163 | A96G U120C | 1.14
164 | A96G U120A | 2.74
165 | A90G A114G | 0.16
166 | A91C A96G | 1.39
167 | A90U A140U | 1.2
